Source: publication PMC13216289
Substitutions are numbered along the chain they refer to.

Target: FMDV C/PHI/3/1994 virus (Foot-and-mouth disease virus C/PHI/3/1994)

B1: Ab17 (antibody, V domains shown)
VH: QVQLRESGPSSLKPSQTLSLTCAVSGFSLSTYAVGWVRQAPGKALEWVGDITSSGDTFYNPALKSRFSITKDNSKNQVSLSVGSVTPEDTATFYCTRLTCGDDCSTAWHNFDAWGQGLLVTVSS
VL: SYELTQPTSVSVALGQTAKITCSGDLLDVQYTQWYQQKPGQGPVRVIYKDSERPSGISDRFSGSSSGKTATLIISGAQTEDEADYYCQSTDSSQYGIFGRGTTLTVL
VNT: minimum antibody concentration that neutralises C/PHI/3/1994 virus: 213 nM

B2: Ab49 (antibody, V domains shown)
VH: QVQLRESGPSLVKPSQTLSLTCTVSGFSLTNYAVGWVRQAPGKAIQSLSIISTTGDTYYNPALKSRLSITKDNSKSQVSLSVSSVAPEDTATYYCVKFCGNADSAGHGWGCDYGDNENWGQGLLVTVSS
VL: B1 VL with V29E, I73T, T90F, D91Y, Q94T, Y95D, G96P, I97V, R100S
VNT: minimum antibody concentration that neutralises C/PHI/3/1994 virus: 1150 nM
